Earlier results on two substances are cited in publication PMC7854602.

Among the targets are Cdc42 (activated) (UniProt P60953); Cdc42 (inactive) (UniProt P60953); RhoA (inactive) (UniProt P61586); RhoA (activated) (UniProt P61586).

Usually Kd stands for the free concentration of one partner at which half of the binding sites on the other are occupied at equilibrium, for simple one-to-one binding. Consider Pak3 CBD 60-113 (from UniProt O75914), for which the Kd with Cdc42 (activated) is 1.8 µM; in the series with Cdc42 (inactive), 149 µM.

Regarding Rhotekin RBD 8-81 (from UniProt Q8C6B2), the Kd with RhoA (inactive) was 47 µM; in the series with RhoA (activated), 3.9 µM.
